Substrate in series [1]: Nc1ncnc2c1ncn2[C@@H]1O[C@H](COP(=O)(O)OP(=O)(O)OP(=O)(O)O)[C@@H](O)[C@H]1O
Put plainly: NADH-coupled ATPase assay (pyruvate kinase / lactate dehydrogenase). As to conditions: no RNA, ctPfa1-GP in five-fold excess, pH 7.5, 150 mM KCl, 3 mM MgCl2, 25 °C. The series is classed as biochemical, Thermochaetoides thermophila. The source says:
NADH-coupled ATPase assay (pyruvate kinase / lactate dehydrogenase) on ctPrp43 + ctPfa1-GP

Substrate in series [2]: Nc1ncnc2c1ncn2[C@@H]1O[C@H](COP(=O)(O)OP(=O)(O)OP(=O)(O)O)[C@@H](O)[C@H]1O
The description is as above. The settings on record: no RNA, no G-patch, pH 7.5, 150 mM KCl, 3 mM MgCl2, 25 °C. It counts as biochemical, Thermochaetoides thermophila. From the text: NADH-coupled ATPase assay (pyruvate kinase / lactate dehydrogenase) on ctPrp43

[3] abbreviates: ctPrp43-IDSB, mainly oxidized (internal disulfide bond).

Changes are numbered by the printed parent chain. Numbers in names are those of the source.

B1: ctPrp43 + ctPfa1-GP (Thermochaetoides thermophila DSM 1495; F181C/N623C) (protein)
chain: MADITKGTKRLSGEAEGSQDSKRVKTNGDKMDAKNPYLAHLEEKPEADFESLLDKLERRNTTAKQAEAVEDSDINPWTGQRHSERYFKILKARRKLPVNKQRQEFLDLYHNNQILVFVGETGSGKTTQIPQYVLYDELPHQTGKLIACTQPRRVAAMSVAQRVADELDVKLGEEVGYSIRCENKTSSKTLLKYMTDGQLLREAMHDRDMSRYSCIILDEAHERTLATDILMALLKQLSERRKDLKIIVMSATLDAQKFQSYFFNAPLLAVPGRTHPVEIFYTPEAERDYVEAAIRTVLQIHACEPEGDILLFLTGEEEIEDACRRISLEVDEMIRESDAGPMSVYPLYGTLPPHQQQRIFEKAPQPFRPGGRPGRKCIVATNIAETSLTIDGIVYVVDPGFSKQKIYNPRTRVESLLVSPISKASAQQRAGRAGRTRPGKCFRLYTEEAFKKELIEQTYPEILRSNLSNTVLELKKLGVEDLVHFDLMDPPAPETMMRALEELNYLACLDDDGELTPLGNLASEFPLDPALAVMLISSPEFYCSNEILSITSLLSVPQIWVRPANARKRADEMKAQFAHPDGDHLTLLNAYHAYKGAEARGEDMKKWCHEHFLSYRHLSSADCVRAQLKKIMETHGIELVSTPFHDKNYYTNIRRALLAGFFMQVAMRESSNSKVYKTVKDEQLVLIHPSTTVTTPYEWVVYNEFVLTTKQYVRTVTNIRPEWLLEIAPVYYDLSTFQKGEIKNALTRVAEKIRRQQAMKASKA
notes: full-length Prp43 (GST tag removed) plus G-patch fragment ctPfa1(662-742) in five-fold excess, both recombinant, tags cut; with Uncharacterized protein (G-patch protein Pfa1)
The term Km denotes the substrate concentration at which the rate is half of its maximum. For orientation: kcat means the number of substrate molecules converted per active site and unit of time at saturation. On to B1, for which, in series [1] (setting [3]), the Km was 29.04 ± 1.35 µM and the kcat is 3.32 s⁻¹.

B2: ctPrp43 (Thermochaetoides thermophila DSM 1495; F181G/R180G/T350G/Y348G) (protein)
chain: B1 chain with R180G, C181G, Y348G, T350G, C623N
notes: full length (residues 1-764), recombinant, GST tag removed, expressed as previously described
For B2, in series [2] (ctPrp43-HT&HL), the Km was found to be 16.72 ± 1.49 µM and the catalytic constant (kcat) amounted to 0.127 s⁻¹.

B3: ctPrp43 + ctPfa1-GP (Thermochaetoides thermophila DSM 1495; F181G/R180G/T350G/Y348G) (protein)
chain: B1 chain with R180G, C181G, Y348G, T350G, C623N
notes: as for B1
For the protein B3, in series [1] (ctPrp43-HT&HL), the Km is 25.17 ± 1.37 µM and the catalytic constant (kcat) stood at 1.89 s⁻¹.

B4: ctPrp43 (Thermochaetoides thermophila DSM 1495; F181C/N623C) (protein)
chain: B1 chain
notes: as for B2
Turning to B4, in series [2] (setting [3]), the Km was determined as 16.23 ± 2.38 µM and the catalytic constant (kcat) turned out to be 0.084 s⁻¹.

B5: ctPrp43 (Thermochaetoides thermophila DSM 1495; T350G/Y348G) (protein)
chain: B1 chain with C181F, Y348G, T350G, C623N
notes: as for B2
Take B5: in series [2] (ctPrp43-HL), the Km is given as 14.31 ± 0.71 µM and the kcat was 0.103 s⁻¹.

B6: ctPrp43 + ctPfa1-GP (Thermochaetoides thermophila DSM 1495; T350G/Y348G) (protein)
chain: B1 chain with C181F, Y348G, T350G, C623N
notes: as for B1
With B6, in series [1] (ctPrp43-HL), the Michaelis constant (Km) amounted to 14.38 ± 0.89 µM and the kcat is 1.44 s⁻¹.

Values taken from article PMC5262380, “Structural insights into the mechanism of the DEAH-box RNA helicase Prp43” (eLife, 2017).
